In article PMC3667722:

Legend:
[1] = biological target: GST-p120-catenin isoform 4A Δ560–628 (mouse); assay: pull-down
[2] = biological target: GST-p120-catenin isoform 4A (mouse); assay: pull-down
GST-p120-catenin isoform 4A (mouse), sequence (P30999 whole entry, canonical isoform): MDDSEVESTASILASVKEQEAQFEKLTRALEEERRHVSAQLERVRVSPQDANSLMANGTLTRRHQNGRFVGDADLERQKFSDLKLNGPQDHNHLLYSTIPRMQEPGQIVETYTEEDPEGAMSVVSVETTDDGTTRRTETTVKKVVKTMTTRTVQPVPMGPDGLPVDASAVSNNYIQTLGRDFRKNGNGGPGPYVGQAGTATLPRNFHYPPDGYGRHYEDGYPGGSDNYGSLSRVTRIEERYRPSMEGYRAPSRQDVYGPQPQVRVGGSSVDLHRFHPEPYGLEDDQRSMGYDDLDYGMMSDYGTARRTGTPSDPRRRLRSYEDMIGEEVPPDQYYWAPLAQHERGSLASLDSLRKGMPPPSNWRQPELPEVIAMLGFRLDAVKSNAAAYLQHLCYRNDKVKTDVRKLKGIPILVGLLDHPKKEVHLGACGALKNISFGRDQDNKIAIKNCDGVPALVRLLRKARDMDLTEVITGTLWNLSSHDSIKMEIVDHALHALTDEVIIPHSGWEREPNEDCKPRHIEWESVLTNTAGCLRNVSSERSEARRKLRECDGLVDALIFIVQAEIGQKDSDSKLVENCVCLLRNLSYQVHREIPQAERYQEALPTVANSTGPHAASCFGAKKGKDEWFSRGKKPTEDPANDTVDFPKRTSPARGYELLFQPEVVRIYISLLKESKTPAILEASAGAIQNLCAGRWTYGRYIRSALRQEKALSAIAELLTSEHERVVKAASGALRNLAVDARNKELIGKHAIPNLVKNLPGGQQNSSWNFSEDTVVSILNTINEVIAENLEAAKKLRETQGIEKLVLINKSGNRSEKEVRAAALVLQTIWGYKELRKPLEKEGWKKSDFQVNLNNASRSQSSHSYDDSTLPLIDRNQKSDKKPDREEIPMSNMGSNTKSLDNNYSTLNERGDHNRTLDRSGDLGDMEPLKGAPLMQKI

## p190RhoGAP-B (from UniProt Q13017 1-1502) (natural protein)
[1]
  p190B bound, percent of that bound to isoform 3A: 38%
[2]
  p190B bound, percent of that bound to isoform 3A: 43%
